Experimental data reported in publication PMC7374715, “Conservation of Cdc14 phosphatase specificity in plant fungal pathogens: implications for antifungal development” (Scientific Reports, 2020).

Tests used:
[1] = test system: O=[N+]([O-])c1ccc(OP(=O)(O)O)cc1; test: purified protein, by the assay type
[2] = test system: Cc1cc(=O)oc2c(F)c(OP(=O)(O)O)c(F)cc12; test: purified protein, by the assay type
[3] = other: pNPP, 25 mM HEPES pH 7.5, 30 °C, mean of 3 ± SD
[4] = other: DiFMUP, 0.5 nM enzyme, pH 7.5, 30 °C, mean of 3 ± SD

CgCdc14 (Colletotrichum gloeosporioides)
Km [1, 3]: 30 ± 4 mM
kcat [1, 3]: 0.6 ± 0.1 s⁻¹
kcat/Km [1, 3]: 20 ± 2 M⁻¹ s⁻¹
Km [2, 4]: 0.078 ± 0.012 mM
kcat [2, 4]: 7 s⁻¹
kcat/Km [2, 4]: 86000 ± 6100 M⁻¹ s⁻¹

MoCdc14 (Pyricularia oryzae 70-15)
Km ([1]; pH 7.5, 30.0 °C): 25 ± 1 mM
Km ([2]; pH 7.5, 30.0 °C): 0.044 ± 0.011 mM
